Measurements as given in the supplement of paper PMC9170038.

Each sequence was assayed on K4 kissing-loop RNA reporter (assay: apparent KD of K4 kissing-loop reporter; higher = weaker reporter binding). Settings: Eterna round: R107; input ligand: arginine 13.2 mM.
Description: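 RNA-MaP round R107: designed RNA switches with theophylline, tryptophan, arginine or FMN aptamers are transcribed on-chip within common flanks. They are titrated with a labelled K4 kissing-loop RNA reporter in RNA-MaP buffer (100 mM Tris pH 7.5, 80 mM KCl, 4 mM MgCl2), without ligand or with the indicated ligand. Median apparent KD per design.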
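Further: bound reporter read as fluorescence of individual clusters on recovered sequencing chips by microscopy, with normalized cluster intensities fitted with a binding model.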

Sequence | apparent KD of K4 kissing-loop reporter [nM]
AAUAAAAUCACGGCCGCCACUGAUUUCCGUAUUAGGAGUGAUGUUCCUAUGACUAUAUAAUUUAACAGGACCGGGUGAAUAUUUA [#21 K4 Tryptophan B Exclusion] | 109
UGGUUUAACUGAAGGAGCGGCAAUUGAUAAGUAGAUAUAGUGAUGUUAUAUAAGAUAGAGAGCCAGGUAGGUCGCAGAGGUAUUU [ExArgB.P] | 218
UAUGUACACGGGUAGUGAUACAUCGAGGAAGGAGCGUGCGCAGGCACAGGUAGGUCGCCUCAGCGCACGAGUGAUGUUCGUGGGC [Veti] | 325
AAGCAGUCACUCGAAGCCAUCGAAGAUGGGCGAGGACCGGUACGGCCGCCACUCGGAGUGAUGUUCCGAAGACUGCAAAAUAAAA | 669
CUUCGAUUAACAGAUACCAGUCACUUGGGAGCCACACACAAGUGAGUGAUGUUCACUUGUGACCCUUGGCAGCUGUUAGUCGAAG [#04 K4 Theophylline B Exclusion] | 86.5
CAGAUGUAGGCGGCCGCCACUCUCAUUACCGUACGCAAGUAUGAUUAGAAGUGAUGUUUCUCGGUGAGGACCGGGCCAUUCCCGA [theeternabot_sameState_KL_Trp_B_27] | 551
GCCGUAGAUGGAAGGAGCGUGGUUAAUGUAAGUGAUGUUUACGAGGUCAACAAUUGACCGCCACAGGUAGGUCGCCAUCUACGGC | 57.4
AUUUUUUUAUCAGGAUAUUAGUGUUGGUUUGUUUUGUUAGUGAUGUUGAUAUUUGUUUUAUGUAUUUAAGAAGGGAUUGAGAUGU [huupullin] | 254
UGAUACCAGACGGCCGCCACUGCACCAGUCAAUGACUGAGUGUGGUAAUGCUCAGUGAUGUUGAGUAGGACCGGGUCUGGUAUCU [Mod of Eli's TrypBX 8 v2] | 124
AGAUUCGACACGGCCGCCACUUCCAGUGGCUGGUGUCAUGGUGCGCGUGAGUGAUGUUUAUGUGGAAGGACCGGGUGUUGAGUCU [KL-XTryp-B1 #analogue] | 554
GUAGCACUUGAUAGUGAUGUUAUCAAGGGCAAGGAUAUCAUCUCAAUGAGAAGGUGUCCUUGAUAACUGCUACGGGAAUAUCCCA [Omei KL FMN A Exc D v6] | 89
AUUAUAUUGUGAAGGAGCGCGCAUAGUAGUGAUGUUACUAUGACAUAUCUUAUUUAAUUCUCGCAGGUAGGUCGCACAUUAUAUA [JR_Nu_ExcArginiB_Sub026] | 64.8
UGAUACCAGACGGCCGCCACUCCCGCAGGUCAAAGACCUGCGAAGCUGGUUCUUCAGUGAUGUUGGAGGACCGGGUCUGGUAUCU [FiskerMod 24 - Jieux - Exclusion - Tryptophan B] | 230
AUUUAAUUAACUGAUACCAGACUUUAAGUAAUUAUUAAAACUAGUGAUGUUAGUUUAUCUGUCCCUUGGCAGCAGUUUCUACUUA [JR_Nu_ExcTheophyB_Sub020] | 136
UUGAGCCGGACGGAAGUCCGGCUCUGCGAGCGAGGACCGGUACGGCCGCCACUCGGUGCAGUGAUGUUGCAUGGCCGCAAGGCCG [#2 Exclusion - Tryptophan A Attempt #4 (HarryS)] | 232
UCGACUGUGUCGGCCGCCACUGGUAUAAACGGACUAUAACGACAUGAGUGAUGUUCAUGUUCGUCUAGGACCGGGACACAAUGUA [Tryp B Ex t3] | 81.8

Sequence | apparent KD of K4 kissing-loop reporter [nM]
AGGUUUUGAUUAGGAUAUGCACUGACGACGAGAAUAUAGUGAUGUUAUAUACUACGAAUUAGUAGAGUAGAAGGGAUUGAGGUUU [SSFMNB.Y] | 265
AAGUGAUGUUGUAGUGAUGUUGUGAUGUUGCAGGAUAUAUAGUGAUGUAGAAGGGUAUGUACUUAUUUGUUUUUUGAGUUAUGUU [zzazzrmullin] | 28.5
GUUUGCCGGUUCCGGAGUGAUGUUCCGGAUACCAGCAACUUCCUUUGCCCUUGGCAGCCGUAGCUAUACCGGAUGGCAGCUUCAG [Arrexean] | 82.7
GCGCGUCAUGUCAGCGGUGACACUGUCGAUACCAGCGCCGGAAGGCGCCCUUGGCAGCGACGUGCUGGAGUGAUGUUCCAGCGUC [#2 Exclusion - Theophylline A Attempt #21 (HarryS)] | 107
CACCAUGAAUUCUCUAGGAGUGAUGUUUUUCGAGGACCGGUACGGCCGCCACUCGGACGAGGACCCUGGGAGCGGCGAAGCGGCU [nigmullin] | 104
AGUCCACUCUAAAGAGUGGACCUAAGGGAUACCAGUGAUGUUGGUCACCCUUGGCAGCCCGCUGUCAUCGAUAAAGAUGGCAGGA | 113
GCCUAGGCUCGAAAGAGCCUAGGCUUGUCUCAGGAUAUCUGGAAACAGAGAAGGGAGCUACUAGUGAUGUUAGGAAUUCCCUAAG | 122
CAUUCACGGCGAGUCGAAGUGAUGUUUCGGCGAGGACCGGUACGGCCGCCACUCGGAUAAAUAUAGCUUAUCACAUACACUUUCG [theeternabot_exclusion_KL_Trp_A_27] | 128
AAAAUAAACCAGUGAUGUUGGUGUCCAGAUACCAGCGGUAAAAUCCGCCCUUGGCAGCUGUGGACGUACAAAAUAAGUACGUCCU [MatMod 4 - Jieux - Same State - Theophylline A] | 321
AACCGUGUGGCGGCCGCCACUAGUCUCCAGUGAUGUUGGAGAGACCACGUAAGUGGUCUCCAACAUAGGACCGGGCCAUAUGGAA [Same State - Tryptophan B (Freestyle 26)] | 78.5
AAGCAGUCAGGAUCGAAGAUCCUGCAAAACCGAGGACCGGUACGGCCGCCACUCGGAGUGAUGUUCCGAAGACUGCAAAAUAAAA [#SwitchBubble 6] | 152
GACUCUCUCGUCAGGAAGACGCACUCAGCCAAGGAUAUUAUGUUUUUAAGAAGGUGGACUUAUGCCAGUGAUGUUGGCAGAUACG [theeternabot_sameState_KL_FMN_A_29] | 86.1
AUAAUAUGAGUGAUGUUCAUGAAACCUGAAGGAGCGGACGAAAGUCCAGGUAGGUCGCAGGACUCCUUCAACAUGGGAGAGGGAG [KL-SSArg-A8 #analogue] | 180
AAAGACUGACUGCAAUUAGCAGUCAGUCAACGAGGACCGGUACGGCCGCCACUCGGGUCCUAGAGUGAUGUUCUAAUAAUAUAAA [AK1.2 SS Tryptophan A] | 495
UGUCAUUGGUCUGAUACCAGUACCCUUGGCAGCCGAGGAGUGAUGUUCCAAGGAUACCAGUACCCUUGGCAGCAGACCGAUGACU [TheoBS 30 #DoubleAptamer #SwitchBubble] | 178
UUAGGAGAGGGAAGGAGCGUGAAAGAGAAAGAAUAUAGUGAUGUUAUAUAGAAGAAAGAAUCACAGGUAGGUCGCCCGGAGGAGG [SSArgB.C] | 520

Same assay, conditions: Eterna round: R107; input ligand: none

Sequence | apparent KD of K4 kissing-loop reporter [nM]
AAAAGCAGAAAGACGCAUUAAAGAACCGAAGGAGCGCGGAAUUACGCAGGUAGGUCGCGGGAUAAGCGAGUGAUGUUCGCGAAAG [Arginine A Same State; Euphoria Solution] | 72.1
GGAGCAGGUGAAGGAUAUCCCGGGCCAGAGUGAUGUUCUGGAUCCCUUGCCGUUUCUAAACGGGUGGGAGAAGGUCACUGAUAAG [Bibimati] | 234
UAUGCUUGUGCUGAUACCAGUGUUAGUGAUGUUAGGACUGUCAGUAGGAUGCGUGCAUUUCACCCUUGGCAGCAGUAUCGCAGCA [theeternabot_exclusion_KL_Theo_B_48] | 351
GUUGACAGACUGCAAAACUAGUCAACAGACUAGGAUAUCAGGAAACUGAGAAGGAGUCAAGUUGCAGUGAUGUUGCAAGAAUAAU [KL-SSFMN-A27] | 173
AUAGCUGAUAGCAGUGAUGUUGCUUCAGAUACCAGACGAGAUCAUGUCCCUUGGCAGCUGACAUGGCAAGUGCUAGGUUAGAUGA [#11 K4 Theophylline A Exclusion] | 125
AACUGUCAAGGACAACAUUACUGCAGUGAUACCAGCAUCGAAAGAUGCCCUUGGCAGCACUAACUUGCAGUGAUGUUGCAAGUAA [BrourdMod 4 - Jieux - Exclusion - Theophylline A] | 256
GUUAAUAGUAGUGAUGUUACAAUAGUUUGUGAGGAUAUCCCGAAAGGGAGAAGGCACAAACAAAUAGAUUCUCACAAAUAUUUAC [FMN A exclusion] | 243
CGCGUACAGUGUUCUACGGCCGAGAGUGAUACCAGCCGUAUUUGUGGCCCUUGGCAGCGCAGAUGCAGUGAUGUUGCAUACUUGG [Same State Theophylline A GF 21] | 135
GCGUGGCAGGCGGCCGCCACUCGGACGAGUCACAGUGAUGUUGUGGUUUGCCAGUCGUCUUCAUCGAGGACCGGGUUUGUUGCGC [Exclusion Tryptophan B GF 18] | 212
UUUGGUUUCUCGGCCGCCACUCGUUGGUAAUGGGCCUCAGGGAUAUAGUGAUGUUAUGUAAAGAAGAGGACCGGGAGAAGGAAGG [ExTryptoB.Dn] | 303
AAUAAAAUCACGGCCGCCACUGAUUUCCGUAUUAGGAGUGAUGUUCCUAUGACUAUAUAAUUUAACAGGACCGGGUGAAUAUUUA [#21 K4 Tryptophan B Exclusion] | 110
UGGUUUAACUGAAGGAGCGGCAAUUGAUAAGUAGAUAUAGUGAUGUUAUAUAAGAUAGAGAGCCAGGUAGGUCGCAGAGGUAUUU [ExArgB.P] | 212
UAUGUACACGGGUAGUGAUACAUCGAGGAAGGAGCGUGCGCAGGCACAGGUAGGUCGCCUCAGCGCACGAGUGAUGUUCGUGGGC [Veti] | 393
AAGCAGUCACUCGAAGCCAUCGAAGAUGGGCGAGGACCGGUACGGCCGCCACUCGGAGUGAUGUUCCGAAGACUGCAAAAUAAAA | 498
CUUCGAUUAACAGAUACCAGUCACUUGGGAGCCACACACAAGUGAGUGAUGUUCACUUGUGACCCUUGGCAGCUGUUAGUCGAAG [#04 K4 Theophylline B Exclusion] | 97.2
CAGAUGUAGGCGGCCGCCACUCUCAUUACCGUACGCAAGUAUGAUUAGAAGUGAUGUUUCUCGGUGAGGACCGGGCCAUUCCCGA [theeternabot_sameState_KL_Trp_B_27] | 670
GCCGUAGAUGGAAGGAGCGUGGUUAAUGUAAGUGAUGUUUACGAGGUCAACAAUUGACCGCCACAGGUAGGUCGCCAUCUACGGC | 57.2
AUUUUUUUAUCAGGAUAUUAGUGUUGGUUUGUUUUGUUAGUGAUGUUGAUAUUUGUUUUAUGUAUUUAAGAAGGGAUUGAGAUGU [huupullin] | 278
UGAUACCAGACGGCCGCCACUGCACCAGUCAAUGACUGAGUGUGGUAAUGCUCAGUGAUGUUGAGUAGGACCGGGUCUGGUAUCU [Mod of Eli's TrypBX 8 v2] | 131
AGAUUCGACACGGCCGCCACUUCCAGUGGCUGGUGUCAUGGUGCGCGUGAGUGAUGUUUAUGUGGAAGGACCGGGUGUUGAGUCU [KL-XTryp-B1 #analogue] | 917
GUAGCACUUGAUAGUGAUGUUAUCAAGGGCAAGGAUAUCAUCUCAAUGAGAAGGUGUCCUUGAUAACUGCUACGGGAAUAUCCCA [Omei KL FMN A Exc D v6] | 96.8
